Five molecules from patent US20110052582A1 (Hoffmann-La Roche, published 2011) can be followed below.

Assay [1] has as its target T1, Human CDCP1 (CUB domain containing protein 1) on DU-145 cells (human, UniProt Q9H5V8 30-836).
T1 sequence: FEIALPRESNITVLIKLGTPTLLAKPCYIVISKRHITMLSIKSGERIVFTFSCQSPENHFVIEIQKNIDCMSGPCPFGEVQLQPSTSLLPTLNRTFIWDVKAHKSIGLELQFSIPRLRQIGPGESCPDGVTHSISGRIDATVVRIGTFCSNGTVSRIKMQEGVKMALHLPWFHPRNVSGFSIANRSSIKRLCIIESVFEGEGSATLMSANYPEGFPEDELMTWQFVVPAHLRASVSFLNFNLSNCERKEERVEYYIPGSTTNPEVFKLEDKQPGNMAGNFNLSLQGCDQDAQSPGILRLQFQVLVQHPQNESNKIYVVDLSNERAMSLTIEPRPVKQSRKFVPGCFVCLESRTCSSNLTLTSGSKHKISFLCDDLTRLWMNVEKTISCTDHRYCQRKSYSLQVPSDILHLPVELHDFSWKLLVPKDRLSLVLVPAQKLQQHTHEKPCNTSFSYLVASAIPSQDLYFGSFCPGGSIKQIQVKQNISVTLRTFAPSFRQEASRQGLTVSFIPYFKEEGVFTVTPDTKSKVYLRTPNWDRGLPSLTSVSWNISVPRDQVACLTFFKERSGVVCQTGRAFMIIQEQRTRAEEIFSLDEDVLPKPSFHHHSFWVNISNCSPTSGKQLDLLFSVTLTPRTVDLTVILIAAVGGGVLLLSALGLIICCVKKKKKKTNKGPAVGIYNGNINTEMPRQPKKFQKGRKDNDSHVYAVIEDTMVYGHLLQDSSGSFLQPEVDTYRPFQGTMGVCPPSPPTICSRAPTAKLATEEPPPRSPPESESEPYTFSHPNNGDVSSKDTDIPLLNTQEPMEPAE
In words: cell-based or functional assay.

In assay [2] the target is T2, Soluble CDCP1 extracellular domain (CDCP1-ECD) (SEQ ID NO:30) fused to Streptavidin Binding Protein (SBP) (human, UniProt Q9H5V8 30-663).
T2 construct: also called SBP-CDCP1-ECD
T2 sequence: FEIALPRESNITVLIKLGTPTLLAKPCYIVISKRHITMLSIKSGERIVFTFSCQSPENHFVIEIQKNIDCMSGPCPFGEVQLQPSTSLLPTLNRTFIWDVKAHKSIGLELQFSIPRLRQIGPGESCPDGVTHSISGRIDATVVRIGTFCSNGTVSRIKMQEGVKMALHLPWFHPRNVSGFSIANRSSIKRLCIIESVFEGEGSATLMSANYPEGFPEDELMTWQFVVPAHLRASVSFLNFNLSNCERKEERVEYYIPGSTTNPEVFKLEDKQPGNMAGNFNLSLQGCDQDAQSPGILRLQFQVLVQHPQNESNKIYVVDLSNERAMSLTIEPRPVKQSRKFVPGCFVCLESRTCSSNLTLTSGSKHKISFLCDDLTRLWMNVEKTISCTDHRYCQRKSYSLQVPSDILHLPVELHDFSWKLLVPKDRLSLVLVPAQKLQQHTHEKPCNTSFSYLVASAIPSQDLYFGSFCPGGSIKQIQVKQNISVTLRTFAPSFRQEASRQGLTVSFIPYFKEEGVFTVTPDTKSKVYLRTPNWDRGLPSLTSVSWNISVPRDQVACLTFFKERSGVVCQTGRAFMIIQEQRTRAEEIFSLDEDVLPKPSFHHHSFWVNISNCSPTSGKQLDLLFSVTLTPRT
In words: ELISA on captured SBP-CDCP1-ECD, ratio relative to chimeric CUB4 (chHC4). A digest of the protocol:
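Streptavidin plates coated overnight at 2–8° C with SBP-CDCP1-ECD HEK293 supernatant (1:15–1:40). Antibodies, undiluted or 12-step dilution, bound 90 min at room temperature; HRP anti-human IgG 1 h, ABTS read at 405/492 nm, signal expressed relative to chimeric chHC4 reference.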

Assay [3] concerns the target T3, extracellular-domain-(ECD)-comprising fragment of human CDCP1 of SEQ ID NO: 30 (human, UniProt Q9H5V8 30-663).
T3 construct: also called CDCP1 ECD; CDCP1-ECD
T3 sequence: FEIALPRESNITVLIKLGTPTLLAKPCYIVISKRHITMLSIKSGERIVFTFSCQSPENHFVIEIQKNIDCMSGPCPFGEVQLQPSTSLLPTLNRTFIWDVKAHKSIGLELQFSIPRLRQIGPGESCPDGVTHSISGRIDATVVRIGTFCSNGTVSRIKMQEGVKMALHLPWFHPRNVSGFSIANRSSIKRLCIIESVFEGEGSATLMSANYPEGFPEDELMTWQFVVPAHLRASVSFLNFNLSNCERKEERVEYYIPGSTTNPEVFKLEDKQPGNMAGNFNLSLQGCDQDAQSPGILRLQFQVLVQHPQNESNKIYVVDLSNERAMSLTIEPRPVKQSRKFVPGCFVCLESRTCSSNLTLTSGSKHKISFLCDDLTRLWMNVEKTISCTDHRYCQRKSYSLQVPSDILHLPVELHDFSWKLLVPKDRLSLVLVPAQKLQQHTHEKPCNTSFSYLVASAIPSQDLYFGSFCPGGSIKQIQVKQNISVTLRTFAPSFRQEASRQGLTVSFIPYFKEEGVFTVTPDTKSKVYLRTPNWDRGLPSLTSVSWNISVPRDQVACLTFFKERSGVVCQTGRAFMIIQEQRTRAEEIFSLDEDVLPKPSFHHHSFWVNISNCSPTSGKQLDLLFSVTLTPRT
In words: SPR (Biacore T100), antibody captured, CDCP1 ECD as analyte, 25 C, Langmuir 1:1. The procedure:
After conjugation, different anti-CDCP1 antibodies were injected at 25° C. at a flow rate of 5 μL/min, followed by a dilution series (0 nM to 1000 nM) of CDCP1 ECD at 30 μL/min. As running buffer for the binding experiment PBS/0.1% BSA was used. The chip was then regenerated with a 60s pulse of 10 mM glycine-HCl, pH 2.0 solution.
Calculation of thermodynamic parameters (KD, binding constant) and kinetic parameters (kₒₙ rate, koff rate) were calculated using a Langmuir 1:1 binding model.
(In general: Surface plasmon resonance follows binding to a sensor surface in real time, without labels.)

B1: Humanized CUB4 Antibody No. 69 (antibody, IgG1, V domains shown)
VH: EVQLVESGGGLVQPGGSLRLSCAASGFTFNSYGMSWVRQAPGKGLEWVATISSGGSYKYYVDSVKGRFTISRDNAKNSLYLQMNSLRAEDTAVYYCARHPDYDGVWFAYWGQGTLVTVSS
VL: EIVLTQSPATLSLSPGERATMSCSVSSSVFYLHWYQQKPGQAPRLWIYDTSKLASGIPARFSGSGSGTDFTLTISSLEPEDFAVYYCQQWNSNPPTFGGGTKVEIK
notes: Human constant region; also called Antibody 69; hHC4-H / hLC-L2
Turning to B1, the “Percent (%) stimulation of CDCP1 phosphorylation in DU-145 cells (Western blot, densitometry)” value (from here on “Percent (%) stimulation”) in assay [1] worked out at 112%. In addition, in assay [2], the relative binding ratio came to 0.69. Moreover, in assay [3], binding was put at a Kd of 2.55 nM; the koff (usually the rate constant with which the complex falls apart) is 0.00052 s⁻¹; the on-rate (kon) (as a rule, the second-order rate constant of association) was 210000 M⁻¹ s⁻¹; the t½ diss. was found to be 22.1 min.

B2: Humanized CUB4 Antibody No. 80 (antibody, IgG1, V domains shown)
VH: EVQLVESGGGLVQPGGSLRLSCAASGFTFNSYGMSWVRQAPGKGLEWVATISSGGSYKYYVDSVKGRFTISRDNAKNSLYLQMNSLRAEDTAVYYCARHPDYDGVWFAYWGQGTLVTVSS
VL: EIVLTQSPATLSLSPGERATMSCGASSSVFYLHWYQQKPGLAPRLWIYDTSKLASGIPDRFSGSGSGTDFTLTISRLEPEDFAVYYCQQWNSNPPTFGGGTKVEIK
notes: Only variable domains are tied to the antibody; Human constant region, preferably IgG1; also called hHC4-H / hLC-M
In the case of B2, the “Percent (%) stimulation” value in assay [1] was 133%. Also, the relative binding ratio in assay [2] amounted to 0.56. Moreover, in assay [3], the Kd (usually the free concentration of one partner at which half of the binding sites on the other are occupied at equilibrium, for simple one-to-one binding) worked out at 3.53 nM; the koff was 0.00088 s⁻¹; the on-rate (kon) was 250000 M⁻¹ s⁻¹; the t½ diss. amounted to 13.1 min.

B3: Humanized CUB4 Antibody No. 47 (antibody, human IgG1, V domains shown)
VH: EVQLVESGGGLVQPGGSLRLSCAASGFTFNSYGMSWVRQAPGKGLEWVATISSGGSYKYYVDSVKGRFTISRDNAKNSLYLQMNSLRAEDTAVYYCARHPDYDGVWFAYWGQGTLVTVSS
VL: EIVLTQSPATLSLSPGERATLSCRASSSVFYLHWYQQKPGQAPRLWIYDTSKLASGIPARFSGSGSGTDFTLTISSLEPEDFAVYYCQQWNSNPPTFGGGTKVEIK
notes: Only variable domains are tied to the antibody; also called humanized anti-CDCP1 antibody 47; hHC4-H / hLC-K
On to B3, for which the “Percent (%) stimulation” value in assay [1] was determined as 96%. The relative binding ratio in assay [2] is 0.46. In assay [3], this molecule gave a Kd of 3.77 nM, an off-rate constant (koff) of 0.00075 s⁻¹, a kon of 200000 M⁻¹ s⁻¹ and a t½ diss. of 15.4 min.

B4: Humanized CUB4 Antibody No. 135 (antibody, IgG1, V domains shown)
VH: EVQLVESGGGLVQPGGSLRLSCAASGFTFNSYGMSWVRQAPGKGLEWVATISSGGSYKYYVDSVKGRFTISRDNAKNSLYLQMNSLRAEDTAVYYCARHPDYDGVWFAYWGQGTLVTVSS
VL: DIQMTQSPSSLSASVGDRVTITCSVSSSVFYVHWYQQKPGKAPKLLIYDTSKLASGVPSRFSGSGSGTDFTFTISSLQPEDIATYYCQQWNSNPPTFGGGTKVEIK
notes: Human constant region, preferably IgG1; also called Antibody 135; hHC4-H / hLC-e
Regarding B4, in assay [1], the “Percent (%) stimulation” value was determined as 72%. Also, the relative binding ratio in assay [2] was found to be 0.47. In assay [3], this molecule gave a Kd of 8.3 nM, a koff of 0.0011 s⁻¹, a kon of 140000 M⁻¹ s⁻¹ and a t½ diss. of 10.3 min.

B5: chimeric (chHC4) CUB4 antibody comprising human constant region and mouse VH and VL (antibody, human IgG1, V domains shown)
VH: EVQLVESGGDLVKPGGSLKLSCAASGFTFNSYGMSWVRQTPDKRLEWVATISSGGSYTYYPDSVKGRFTISRDNAKNTLYLQMSSLKSEDTAMYYCARHPDYDGVWFAYWGQGTLVTVSA
VL: QIVLTQSPAIMSASPGEKVTMTCSVSSSVFYVHWYQQKSGTSPKRWIYDTSKLASGVPARFSGSGSGTSYSLTISSMEAEDAATYYCQQWNSNPPTFGGGTKLEIK
For B5, in assay [1], the “Percent (%) stimulation” value was determined as 100%.
